Measured values published in paper doi:10.1101/2020.06.12.148387 (bioRxiv, 2020).

Target: T1, SARS-CoV-2 Spike ectodomain (pre-fusion, with proline mutations) (SARS-CoV-2, early reference strain …, residues 986 and 987 mutated to a Pro-Pro sequence)
T1 construct: also called pre-fusion Spike; trimeric Spike
Assay: cryo-EM structure
Conditions: both partners purified

B1: EY6A Fab (digested from IgG with papain) (Fab, V domains shown)
VH: EVQLVESGGGVVQPGRSLRLSCAASAFTFSSYDMHWVRQAPGKGLEWVAVISYDGSNKYYADSVKGRFTISRDNSKNTLYLQMNSLRAEDTAVYYCAKDGGKLWVYYFDYWGQGTLVTVSS
VL: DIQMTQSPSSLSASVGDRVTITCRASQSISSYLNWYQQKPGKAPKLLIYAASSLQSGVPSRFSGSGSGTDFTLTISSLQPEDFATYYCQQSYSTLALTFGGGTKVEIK
notes: also called Fab-EY6A; source: digested from ExpiCHO-made IgG with papain (Pierce Fab Preparation Kit)
stoichiometry N: 3 Fabs per Spike trimer
